Measured values published in publication PMC4537050, “A long pentraxin-3-derived pentapeptide for the therapy of FGF8b-driven steroid hormone-regulated cancers” (Oncotarget, 2015).

Tests used:
[1] = target: Human recombinant FGF8b (fibroblast growth factor-8b) (human)
[2] = target: Human recombinant FGF8b (fibroblast growth factor-8b) (human); assay: SPR; BIAcore X-100; FGF8b (20 μg/ml in 10 mM sodium acetate, pH 6.0) or other FGFs (10 mM sodium acetate at optimal pH) immobilised on a CM5 sensor chip by EDC/NHS; peptide injected (ARPCA 8 μM to 2000 μM), 4 min at 30 μl/min, 10 min dissociation, in HBS; equilibrium values fitted with the Langmuir equation for monovalent binding
FGF1 = FGF1 (UniProt P05230); assay: as above
FGF2 = FGF2 (UniProt P09038); assay: as above

B1: Ac-ARPCA-NH2, acetylated pentapeptide corresponding to PTX3(100-104) (peptide)
peptide: Ac-ARPCA-NH2
Binder B1 has an inhibition of HUVEC proliferation in response to 30 ng/ml FGF8b (viable cell counts at 48 h) [1] of 30 µM, a Kd [2] of 278 µM and a Kd (FGF1) of 227 µM. The Kd (FGF2) was 1700 µM.
